This note sets out measurements from the supplement of paper PMC10567573.

± gives the standard deviation.

This data set in a line: protein stability index of a GFP-peptide fusion (GPS, HEK-293T) (PSI 1-6); higher = more stable.
Setting [1] is: treatment: DMSO, c terminus: a fixed tail appended.
Where [2] appears, read: treatment: MLN4924 1 uM, 8 h, c terminus: a fixed tail appended.
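Further: 24-mer peptide tiles fused after GFP, lentivirally expressed, FACS-sorted into six equal bins by GFP/DsRed ratio, decoded by Illumina sequencing, PSI is the read-weighted mean bin number.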

With VNDKRRKKSGEKEQHISKCKKAFR [KMT2E], the protein stability index stood at 3.76 ± 0.14 under setting [1] and 3.86 ± 0.27 under setting [2].
On the same counts, the results for VPDREEGGSGGGGGGDEDGSLGSR [SMAD6] are 5.59 ± 0.24 and 5.33 ± 0.3.
In the case of VPEEEQAANKGEEKKDDENIPMET [SMARCE1], the protein stability index under setting [1] is 5.63 ± 0.19 and the protein stability index under setting [2] amounted to 5.68 ± 0.27.
On to VPLARSLQISEELLSRNQLSTAAS [LCOR], for which the protein stability index is, setting by setting: under setting [1], 3.67 ± 0.097; under setting [2], 3.73 ± 0.076.
For the sequence VPTVSRPYSFIEFDTFIQKTKKLY [SEC22B], the protein stability index was found to be 2.3 ± 0.34 under setting [1] and 2.47 ± 0.17 under setting [2].
On the same counts, the results for VQEVMEEEWNALQSVENCPEDLAQ [RPAIN] are 5.51 ± 0.21 and 5.48 ± 0.089.
As for VQKDHENYMKILLKVGGILVMPIE [PCMTD1], the protein stability index reads like this: under setting [1], 2.88 ± 0.67; under setting [2], 2.16 ± 0.48.
The matching figures for VQNGTYLQRVLQNCPWPMSCPGSS [EMID1]: 2.12 ± 0.36 and 3.17 ± 1.1.
The matching figures for VRILLRRGVDVSLQGKDAWLPLHY [RIPK4]: 2.99 ± 1.7 and 2.29 ± 0.44.
On to VRMSADAMLKALLGSKHKVCMDLR [TNNI2], for which the protein stability index was 2.25 ± 0.45 under setting [1] and 2.1 ± 0.3 under setting [2].
With VRRSSRKSKAELQSEERKRIDELI [KMT5A], the protein stability index reads like this: under setting [1], 4.62 ± 0.48; under setting [2], 4.51 ± 0.39.
On the same counts, the results for VSFLRSGTKLIFRRRPRQKEAGLS [C2CD2L] are 2.75 ± 0.74 and 3.1 ± 0.24.
The matching figures for VSGCPEDLTVGRAPTADDDDDDHD [NOL4L]: 5.62 ± 0.31 and 5.63 ± 0.28.
On the same counts, the results for VSGKCEPIGCDGVLFSTHTLDKCG [ADAMTSL2] are 3.41 ± 0.4 and 3.35 ± 0.29.
For VSPIQIDGAGRTWQDSDTVKLLVD [TOR1AIP2], the protein stability index came out at 3.92 ± 0.11 under setting [1] and 3.75 ± 0.32 under setting [2].
On the same counts, the results for VTETEETQEKKAESKEPIEEEPTG [SDE2] are 5.68 ± 0.19 and 5.85 ± 0.11.
The matching figures for VTHREGAPPLPGAESFPGSQVMGS [PLEKHN1]: 4.63 ± 0.14 and 4.51 ± 0.11.
As to VTLQCLAARALDKNKIPYKGFIPE [FEM1A], the protein stability index is, setting by setting: under setting [1], 2.69 ± 0.27; under setting [2], 2.67 ± 0.28.
VVAAVGKELIIFRLVAPTEGSLEW [WDR41] registered a protein stability index under setting [1] of 2.3 ± 0.21 and a protein stability index under setting [2] of 2.37 ± 0.28.
On the same counts, the results for VVDRIQSSGKNVTLLVCGKKAYDY [PDZK1] are 2.42 ± 0.5 and 2.54 ± 0.31.
VVEEAKCCCFFKRKRKKTAQRHK [CSNK1G1] returned a protein stability index (treatment: DMSO, c terminus: native) of 4.18 ± 0.33 and a protein stability index (treatment: MLN4924 1 uM, 8 h, c terminus: native) of 4.69 ± 0.42.
For VVGFDLELGQAVEVIYPQHSKLTD [DENND6A], the protein stability index by setting is: under setting [1], 2.03 ± 0.097; under setting [2], 2.62 ± 0.3.
Take VVKEEISDDNAKLPCFNGRVVSWL [DVL3]: the protein stability index is 2.94 ± 0.29 under setting [1] and 3.19 ± 0.19 under setting [2].
On the same counts, the results for VVPPTPPVVKKKGVKRKADTTTPT [BRD3] are 4.9 ± 0.39 and 4.82 ± 0.31.
The matching figures for WGPSGQLMGEIAKATFMYEQFPEL [CLINT1]: 1.97 ± 0.38 and 2.06 ± 0.23.
Take WLPESDCETVTCCLFSERDAAGAP [SMAD6]: the protein stability index came out at 3.72 ± 0.58 under setting [1] and 3.96 ± 0.27 under setting [2].
WMQANYDPLSDSDSMTSQAKPEAL [ELOA2]: the protein stability index came out at 4.72 ± 0.12 under setting [1] and 4.54 ± 0.26 under setting [2].
On the same counts, the results for WPRNPPSRLLGAAAGQRSRPSTYY [DNAJC4] are 3.24 ± 0.25 and 3.67 ± 0.4.
The matching figures for WVEQAYADKCVCGPSAPPAPTPPS [TIAF1]: 3.9 ± 0.17 and 3.9 ± 0.3.
The matching figures for YANAVLQALSNVPPLRNYFLEEDN [USP39]: 2.19 ± 0.072 and 2.12 ± 0.24.
For YCAKLCEPQWFYEETESSDDVEVL [C8orf76], the protein stability index runs as follows: under setting [1], 2.98 ± 0.67; under setting [2], 3.6 ± 0.79.
The matching figures for YDQLKAFLCGRALTSDLYAPMVAG [SLC25A39]: 2.61 ± 0.2 and 2.04 ± 0.15.
On the same counts, the results for YDYLRKLFTDLFDRKGYMFDYEYD [CSNK1G3] are 2.11 ± 0.76 and 2 ± 0.3.
Consider YEDGEVEEEADSCFGDDEDDSGTE [CDC34], for which the protein stability index was found to be 5.61 ± 0.16 under setting [1] and 5.67 ± 0.12 under setting [2].
The matching figures for YEFQIPYICPDYQSYFKTIEDFQQ [KRT36]: 2.28 ± 0.3 and 2.07 ± 0.3.
On the same counts, the results for YEHHYHTLHGNVCSFCKRAFPSGH [ZNF511] are 2.73 ± 0.37 and 3.19 ± 0.54.
The matching figures for YERTLGQYQYERYGAVELSGAGRR [IRX6]: 3.75 ± 0.36 and 3.81 ± 0.3.
With YFQSVTSNRWLMVKIFLILIVFFI [STX5], the protein stability index runs as follows: under setting [1], 2.85 ± 0.6; under setting [2], 2.93 ± 0.49.
The matching figures for YGETCFPKGRFERKRNPSRKKQHI [ZNF24]: 2.93 ± 0.62 and 3.24 ± 0.6.
Regarding YGMQTQNYPKGGLLDSMCPASTPS [ETS2], the protein stability index by setting is: under setting [1], 3.79 ± 0.19; under setting [2], 3.64 ± 0.18.
On the same counts, the results for YKENFLKRFQLTKLPPYLIFCIKR [USP39] are 3.02 ± 0.77 and 2.82 ± 0.43.
On the same counts, the results for YKPEQPLVRLRGGAYIGEGRVEVL [LOXL2] are 3.12 ± 0.16 and 2.97 ± 0.47.
On the same counts, the results for YKSVLQAVQKTDEGHPFKAYLELE [RTN1] are 3.43 ± 0.12 and 3.54 ± 0.21.
Turning to YLPRDFSTYRPLPDPSVWSRRYTE [MYORG], the protein stability index is, setting by setting: under setting [1], 2.64 ± 0.17; under setting [2], 2.82 ± 0.29.
On the same counts, the results for YNPDLKKVVEAHKIVLCAVSHVFM [RHOBTB3] are 2.95 ± 0.57 and 2.97 ± 0.26.
The matching figures for YPIYVIPEPPPVSFQPYHPLHFRG [TENT5D]: 2.35 ± 0.28 and 2.32 ± 0.37.
The matching figures for YPPFWDEDQHRLYQQIKAGAYDFP [CAMK2D]: 2.56 ± 0.21 and 2.64 ± 0.25.
As to YQASAMMVESRYALLIVDSATALY [RAD51], the protein stability index is, setting by setting: under setting [1], 2.94 ± 0.47; under setting [2], 2.89 ± 0.41.
Take YQYLHYALFKANRLEKAVAAAYTF [P3H4]: the protein stability index runs as follows: under setting [1], 2.22 ± 0.17; under setting [2], 2.55 ± 0.25.
As to YRQKLLMFLEISSYYDPGRLICDF [VPS39], the protein stability index is, setting by setting: under setting [1], 2.92 ± 0.55; under setting [2], 2.7 ± 0.56.
For the sequence YRVSDVTKAGHSLELIEPLIKFQV [VDR], the protein stability index worked out at 1.99 ± 0.4 under setting [1] and 2.12 ± 0.21 under setting [2].
Regarding YSLELGKAIKQKLWEALCSQGAIS [C22orf31], the protein stability index under setting [1] is 2.4 ± 0.45 and the protein stability index under setting [2] turned out to be 2.63 ± 0.29.
The matching figures for YSNTKENGINGELTSADRETAEEV [MAP2]: 5.47 ± 0.13 and 5.44 ± 0.24.
On the same counts, the results for YYPTSSSTSFMSSSSSSSSWLTRR [EMD] are 3.23 ± 0.19 and 3.29 ± 0.39.
